Source: patent US20080146500A1, “Selective Vpac2 Receptor Peptide Agonists” (priority 2004, published 2008)
Like-named read-outs stand apart in the source and are kept apart here. Square brackets hold non-standard residues; d marks the D form. Ends that are not written are not given here. * marks the point of attachment. Hexanoyl = CCCCCC(=O)*; Aib = CC(C)(N)C(=O)O

How the values were obtained:
human PAC1 = biological target: T1, human PAC1 (Homo sapiens, UniProt P41586); assay: Filter binding assay, membranes from cells transiently transfected with human PAC1, 125I-labeled PACAP-27 tracer; details: read-out: Human receptor binding (IC50; nM) PAC1
T1 construct: expressed in transfected cells
T1 sequence (P41586 21-468): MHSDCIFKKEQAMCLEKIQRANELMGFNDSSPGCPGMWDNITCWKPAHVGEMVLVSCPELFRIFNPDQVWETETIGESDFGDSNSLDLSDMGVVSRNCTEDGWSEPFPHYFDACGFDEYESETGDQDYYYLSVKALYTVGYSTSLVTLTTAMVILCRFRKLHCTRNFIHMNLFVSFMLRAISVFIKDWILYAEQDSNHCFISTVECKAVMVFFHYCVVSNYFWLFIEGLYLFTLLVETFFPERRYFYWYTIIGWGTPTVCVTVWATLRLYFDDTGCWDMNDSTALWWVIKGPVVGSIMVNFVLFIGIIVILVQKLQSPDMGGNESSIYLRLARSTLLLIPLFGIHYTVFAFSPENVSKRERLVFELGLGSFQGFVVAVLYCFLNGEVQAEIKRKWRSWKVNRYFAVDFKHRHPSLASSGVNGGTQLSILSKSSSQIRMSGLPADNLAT
Method: (§1) For this assay, the solutions and equipment include:
(§2) Presoak solution: 0.5% Polyethyleneamine in Aqua dest.
(§3) Buffer for flushing filter plates: 25 mM HEPES pH 7.4
(§4) Blocking buffer: 25 mM HEPES pH 7.4; 0.2% protease free BSA
(§5) Assay buffer: 25 mM HEPES pH 7.4; 0.5% protease free BSA
(§6) Dilution and assay plate: PS-Microplate, U form
(§7) Filtration Plate Multiscreen FB Opaque Plate; […] Type B Glasfiber filter
(§8) In order to prepare the filter plates, the presoak solution is aspirated by vacuum filtration. The plates are flushed twice with 200 μL flush buffer. 200 μL blocking buffer is added to the filter plate. The filter plate is then incubated with 200 μL presoak solution for 1 hour at room temperature.
(§9) The assay plate is filled with […] (2.5 μg) suspended in assay buffer, 25 μL compound (agonist) in assay buffer, and 25 μL tracer (about 40000 cpm) in assay buffer. The filled plate is incubated for 1 hour with shaking.
(§10) The transfer from assay plate to filter plate is conducted. The blocking buffer is aspirated by vacuum filtration and washed two times with flush buffer. 90 μL is transferred from the assay plate to the filter plate. The 90 μL transferred from assay plate is aspirated and washed three times with 200 μL flush buffer. The plastic support is removed. It is dried for 1 hour at 60° C. 30 μL Microscint is added. The count is performed.
(§11) Values reported are single results or the mean of two or more independent runs.

human VPAC1 = biological target: T2, human VPAC1 (Homo sapiens, UniProt P32241); assay: Filter binding assay, membranes from cells transiently transfected with human VPAC1, 125I-labeled VIP tracer; details: read-out: Human receptor binding (IC50; nM) VPAC1
T2 construct: expressed in transfected cells
T2 sequence (P32241 31-457): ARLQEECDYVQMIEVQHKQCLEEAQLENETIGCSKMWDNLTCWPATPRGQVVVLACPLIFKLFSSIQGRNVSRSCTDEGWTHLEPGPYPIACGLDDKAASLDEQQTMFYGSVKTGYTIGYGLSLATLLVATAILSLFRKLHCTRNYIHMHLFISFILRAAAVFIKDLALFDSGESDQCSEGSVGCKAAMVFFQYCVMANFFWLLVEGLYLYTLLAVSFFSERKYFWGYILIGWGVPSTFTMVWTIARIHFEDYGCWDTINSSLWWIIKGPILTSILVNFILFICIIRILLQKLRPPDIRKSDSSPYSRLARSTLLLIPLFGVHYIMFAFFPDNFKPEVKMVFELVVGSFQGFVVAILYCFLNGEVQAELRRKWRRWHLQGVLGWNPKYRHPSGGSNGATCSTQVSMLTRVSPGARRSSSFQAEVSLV
Method: as §1, §2, §3, §4, §5, §6, §7, §8, §9, §10, §11

[1] = Rat serum stability at 37 C, remaining active peptide estimated by EC50,4C/EC50,37C in CHO-VPAC2 cAMP assay
Method: The rat serum is stored at 4° C. until use and is used within two weeks.
On Day 0, two 100 μL aliquots of 10 μM peptide in rat serum are prepared by adding 10 μL peptide stock to 90 μL rat serum for each aliquot. 250 kIU aprotinin/mL is added to one of these aliquots. The aliquot is stored with aprotinin at 4° C. The aliquot is stored without aprotinin at 37° C. The aliquots are incubated for […].
On Day 1, after incubation of the aliquots prepared on day 0 for 24 hours, an incubation buffer containing PBS+1.3 mM CaCl2, 1.2 mM MgCl2, 2 mM glucose, and 0.25 mM IBMX is prepared. A plate with 11 serial 5× dilutions of peptide for the 4° C. and 37° C. aliquot is prepared for each peptide studied. […] The plate(s) are washed with cells twice in incubation buffer. The plates are allowed to hold 50 μL incubation media per well for 15 minutes. 50 μL solution per well is transferred to the cells from the plate prepared with 11 serial 5× dilutions of peptide for the 4° C. and 37° C. aliquot for each peptide studied, using the maximal concentrations that are indicated by the primary screen, in duplicate. This step dilutes the peptide concentration by a factor of two. The cells are incubated at room temperature for 30 minutes. The supernatant is removed. 40 μL/well of the DiscoveRx antibody/extraction buffer is added. The cells are incubated on the shaker (300 rpm) for 1 hour. Normal procedure with the DiscoveRx kit is followed. cAMP standards are included in column 12. EC50 values are determined from the cAMP assay data.

human VPAC2 [2] = biological target: T3, human VPAC2 (Homo sapiens, UniProt P41587); assay: Alpha screen in vitro potency: human VPAC2-R mediated cAMP generation; assay type: cell-based; details: single results or mean of two or more independent runs
T3 construct: expressed in transfected cells
T3 sequence (P41587 24-438): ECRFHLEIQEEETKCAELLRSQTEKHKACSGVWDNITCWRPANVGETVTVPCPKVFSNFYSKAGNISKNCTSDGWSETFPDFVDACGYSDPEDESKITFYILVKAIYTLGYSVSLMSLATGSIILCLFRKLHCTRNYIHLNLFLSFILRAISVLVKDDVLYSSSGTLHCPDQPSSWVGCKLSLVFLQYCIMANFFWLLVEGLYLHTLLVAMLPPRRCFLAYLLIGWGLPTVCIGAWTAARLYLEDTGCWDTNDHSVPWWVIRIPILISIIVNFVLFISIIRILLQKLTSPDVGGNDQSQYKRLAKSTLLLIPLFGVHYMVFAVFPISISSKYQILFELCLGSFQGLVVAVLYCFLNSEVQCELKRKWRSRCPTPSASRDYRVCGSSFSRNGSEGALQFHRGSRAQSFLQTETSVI

human VPAC2 [3] = biological target: T3, human VPAC2; assay: Filter binding assay, membranes from stable VPAC2 cell line, 125I-labeled VIP tracer; details: read-out: Human receptor binding (IC50; nM) VPAC2
Method: as §1, §2, §3, §4, §5, §6, §7, §8, §9, §10, §11

[4] = Pharmacokinetic profiles of PEGylated peptides, plasma peptide by RIA; assay type: in vivo, Fisher 344 rats
Method: Pharmacokinetic profiles of PEGylated peptides. Healthy Fisher 344 rats (3 animals per group) are injected with 100 μg compound/kg (compound amount based on peptide content and dissolved in PBS buffer). […] PK parameters are then calculated using a model-independent method (WinNonlin Pro, Pharsight Corp., Mountain View, Calif., USA).

rat VPAC1 receptor = biological target: T4, rat VPAC1 receptor (Rattus norvegicus, UniProt P30083); assay: Rat VPAC1 in vitro potency (cAMP generation, DiscoveRx) in transiently transfected CHO-PO cells; assay type: cell-based; details: CHO-PO cells transiently transfected with rat VPAC1; read-out: rVPAC1 in vitro potency (cAMP generation) EC50
T4 construct: expressed in transfected cells; host or cells: CHO-PO cells, transient
T4 sequence (P30083 31-459): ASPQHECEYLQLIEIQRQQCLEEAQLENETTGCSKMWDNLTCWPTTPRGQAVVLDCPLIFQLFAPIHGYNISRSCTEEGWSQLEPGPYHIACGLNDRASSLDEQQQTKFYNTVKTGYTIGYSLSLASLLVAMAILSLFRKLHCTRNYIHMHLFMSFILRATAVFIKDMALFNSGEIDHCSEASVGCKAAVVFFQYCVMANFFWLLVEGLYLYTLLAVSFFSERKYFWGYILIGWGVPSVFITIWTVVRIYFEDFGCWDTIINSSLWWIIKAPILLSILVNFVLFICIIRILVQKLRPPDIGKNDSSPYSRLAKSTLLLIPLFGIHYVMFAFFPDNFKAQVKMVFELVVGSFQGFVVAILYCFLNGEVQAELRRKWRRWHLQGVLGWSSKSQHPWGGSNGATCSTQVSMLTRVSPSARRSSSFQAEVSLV
Method: (§12) Rat receptor selectivity is estimated by comparing functional potency (cAMP generation) in CHO-PO cells transiently expressing rat VPAC1 or rat VPAC2 receptors. CHO-PO cells transiently expressing rat VPAC1 or VPAC2, are seeded with 10,000 cells/well three days before the assay. The cells are kept in 200 μL culture medium. […] The stimuli are present for 30 minutes. The assay buffer is then gently removed.

rat VPAC2 receptor = biological target: T5, rat VPAC2 receptor (Rattus norvegicus, UniProt P35000); assay: Rat VPAC2 in vitro potency (cAMP generation, DiscoveRx) in transiently transfected CHO-PO cells; assay type: cell-based; details: CHO-PO cells transiently transfected with rat VPAC2; read-out: rVPAC2 in vitro potency (cAMP generation) EC50
T5 construct: expressed in transfected cells; host or cells: CHO-PO cells, transient
T5 sequence (P35000 23-437): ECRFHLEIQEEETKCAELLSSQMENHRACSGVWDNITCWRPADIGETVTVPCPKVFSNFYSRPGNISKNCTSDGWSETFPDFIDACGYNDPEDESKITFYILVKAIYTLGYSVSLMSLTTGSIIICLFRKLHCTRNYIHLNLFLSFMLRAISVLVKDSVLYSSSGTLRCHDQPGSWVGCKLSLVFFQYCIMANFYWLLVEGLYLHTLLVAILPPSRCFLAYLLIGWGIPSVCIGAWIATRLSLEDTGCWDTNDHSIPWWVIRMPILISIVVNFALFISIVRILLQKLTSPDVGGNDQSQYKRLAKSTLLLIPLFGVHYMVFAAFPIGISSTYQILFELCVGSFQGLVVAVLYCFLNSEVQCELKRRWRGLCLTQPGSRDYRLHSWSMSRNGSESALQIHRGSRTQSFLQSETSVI
Method: as §12

[5] = Fisher 344 rats, 100 μg compound/kg, plasma RIA, mean N = 3

Substance | IC50 (human VPAC1) | EC50 (human VPAC2 [2]) | IC50 (human VPAC2 [3]) | also measured
C6-HSDAVFTDNYTRLRAibQVAAKAibYLQSIKNKRYGGPSSGAPPPC(PEG40K)-NH2 (Hexanoyl-HSDAVFTDNYTRLR[Aib]QVAAK[Aib]YLQSIKNKRYGGPSSGAPPPC(PEG 40 kDa)-NH2) [Agonist P286] | > 3000 nM | 6.65 nM | 0.46 nM | IC50 (human PAC1): > 25000 nM; Estimated 72 h stability (%) ([1]; after 72 h in rat serum at 37 C, values >100% may represent release of intact peptide from the PEG conjugate): 60.5%
C6-HSDAVFTDNYThRLRAibQVAAAibKYLQSIhRNhRhRYGGPSSGAPPPC(PEG40K)-NH2 (HSDAVFTDNYTXLRXQVAAXKYLQSIXNXXYGGPSSGAPPPC; non-natural residues) [Agonist P340] | > 3000 nM | 7.74 nM | 4.76 nM | AUC0-last [4, 5]: 515 ng·h/mL; Cmax [4, 5]: 44 ng/mL; Tmax [4, 5]: 6 h; EC50 (rat VPAC1 receptor): 116 nM; IC50 (human PAC1): > 25000 nM; EC50 (rat VPAC2 receptor): 4 nM
P217 (Hexanoyl-HSDAVFTDNYTRLRK(PEG 20 kDa)QVAAK(PEG 20 kDa)RYLQSIRNGGPSSGAPPPS) [Agonist P217] | – | > 3000 nM | – | –
P217 (Hexanoyl-HSDAVFTDNYTRLRK(PEG 20 kDa)QVAAK(PEG 20 kDa)RYLQSIRNGGPSSGAPPPS) [Compound P217] | – | – | – | Cl/F ([4]; rat, in vivo): 0.12 mL/min/kg; Tmax ([4]; rat, in vivo): 20 h; T½ ([4]; rat, in vivo): 49 h; Vd/F ([4]; rat, in vivo): 0.421 L/kg
P219 (Hexanoyl-HSDAVFTDNYTRLRRQVAAK(PEG 20 kDa)RYLQSIRNGGPSSGAPPPS) [Agonist P219] | > 25000 nM | 25.5 nM | 67.9 nM | –
P219 (Hexanoyl-HSDAVFTDNYTRLRRQVAAK(PEG 20 kDa)RYLQSIRNGGPSSGAPPPS) [Compound P219] | – | – | – | Estimated 72 h stability (%) [1]: 45.6%
P245 (HSDAVFTDNYTRLRKQVAARRYLQSIRNGGPSSGAPPPS; not fully specified (residue 15, N-terminus)) [Agonist P245] | > 25000 nM | 450 nM | 921 nM | –
P246 (Hexanoyl-HSDAVFTDNYTRLRRQVAAK(PEG 40 kDa)RYLQSIRNGGPSSGAPPPS) [Agonist P246] | > 25000 nM | 398 nM | > 1000 nM | –
P247 (HSDAVFTDNYTRLRRQVAARKYLQSIRNGGPSSGAPPPS; not fully specified (residue 21, N-terminus)) [Agonist P247] | > 25000 nM | 133 nM | 353 nM | –
P247 (HSDAVFTDNYTRLRRQVAARKYLQSIRNGGPSSGAPPPS; not fully specified (residue 21, N-terminus)) [Compound P247] | – | – | – | Estimated 72 h stability (%) [1]: 16.7%
P300 (Hexanoyl-HSDAVFTDNYTRLR[Aib]QVAA[Aib]KYLQSIKNKRYGGPSSGAPPPC(PEG 40 kDa)-NH2) [Agonist P300] | > 3000 nM | 6.62 nM | 1.76 nM | IC50 (human PAC1): > 25000 nM; EC50 (rat VPAC2 receptor): 5.8 nM
P300 (Hexanoyl-HSDAVFTDNYTRLR[Aib]QVAA[Aib]KYLQSIKNKRYGGPSSGAPPPC(PEG 40 kDa)-NH2) [Compound P300] | – | – | – | Cl/F ([4]; rat, in vivo): 1.2 mL/min/kg; Tmax ([4]; rat, in vivo): 10 h; T½ ([4]; rat, in vivo): 15 h; Vd/F ([4]; rat, in vivo): 1.557 L/kg
